Test results reported in patent US20100209422A1.

Key:
[1] = biological target: protofibrillar (PF) form of Aβ42 (human); assay: SPR (BIAcore), ratio of PF binding to LMW binding
[2] = biological target: protofibrillar (PF) form of Aβ42 (human); assay: SPR (BIAcore), antibody immobilized, PF Aβ42 injected
[3] = biological target: low-molecular weight (LMW) form of Aβ42 (human); assay: SPR (BIAcore), antibody immobilized, LMW Aβ42 injected
Sequence of low-molecular weight (LMW) form of Aβ42 (human) (peptide, as listed by the source): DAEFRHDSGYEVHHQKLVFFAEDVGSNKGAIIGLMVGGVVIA

Sequence of protofibrillar (PF) form of Aβ42 (human) (peptide, as listed by the source): as above

Ratio (PF/LMW) [1]	BIACORE Binding Analysis PF [2]	BIACORE Binding Analysis LMW [3]	Substance
1	68.4	69.9	82E1 (antibody)
1.4	541	400	6E10 (antibody)
1.5	340	229	monoclonal antibody 4G8
0.9	403	425	3D6 anti-Aβ antibody
